The numbers were not newly measured in patent US6191103A, “Methods for enhancing thrombolysis in a mammal” (priority 1997, dated 2001), which cites them from elsewhere.

The conditions of the data set: in vivo.

“tPA: tissue-type plasminogen activator, fibrinolytic agent”: the plasma half-life result is “around 5 minutes”.
